B1: HDV Ribozyme (parent)
chain: GGCCGGCAUGGUCCCAGCCUCCUCGCUGGCGCCGGCUGGGCAACAUUCCGAGGGGACCGUCCCCUCGGUAAUGGCGAAUGGGACCCA

Variants of: B1
Assay: self-cleavage, relative activity (ratio to wild type); higher = more cleavage; co-transcriptional

| Variant | self-cleavage |
| --- | --- |
| GGCAGGCAUGGCCCCAGCCUCCUCGCUGGCGCCGGCUGGGCAACAUUCCGAGGGGACCGUCCCCUCGGUAAUGGCGAAUGGGACCCA [C4A U12C] | 0.095 |
| GGCAGGCAUGGACCCAGCCUCCUCGCUGGCGCCGGCUGGGCAACAUUCCGAGGGGACCGUCCCCUCGGUAAUGGCGAAUGGGACCCA [C4A U12A] | 0.0712 |
| GGCAGGCAUGGGCCCAGCCUCCUCGCUGGCGCCGGCUGGGCAACAUUCCGAGGGGACCGUCCCCUCGGUAAUGGCGAAUGGGACCCA [C4A U12G] | 0.0536 |
| GGCAGGCAUUGUCCCAGCCUCCUCGCUGGCGCCGGCUGGGCAACAUUCCGAGGGGACCGUCCCCUCGGUAAUGGCGAAUGGGACCCA [C4A G10U] | 0.0733 |
| GGCAGGCAUGGUCCCAGCCUCCACGCUGGCGCCGGCUGGGCAACAUUCCGAGGGGACCGUCCCCUCGGUAAUGGCGAAUGGGACCCA [C4A U23A] | 0.309 |
| GGCAGGCAUGGUCCCAGCCUCCCCGCUGGCGCCGGCUGGGCAACAUUCCGAGGGGACCGUCCCCUCGGUAAUGGCGAAUGGGACCCA [C4A U23C] | 0.0978 |
| GGCAGGCAUGGUCCCAGCCUCCUCGCUGGCGCCGGCUGGGCAACAUUCCGAGGGGACCGUCCCCUCGGUAAUGGCGAAUGGGACCUA [C4A C86U] | 0.284 |
| GGCAGGCAUGGUCCCAGCCCCCUCGCUGGCGCCGGCUGGGCAACAUUCCGAGGGGACCGUCCCCUCGGUAAUGGCGAAUGGGACCCA [C4A U20C] | 0.214 |
| GGCAGGCAUGGUCCCAGCCUCCUCGCUGGCGCCGGCUGGGCAACAUUCCGAGGGGACCAUCCCCUCGGUAAUGGCGAAUGGGACCCA [C4A G59A] | 0.346 |
| GGCAGGCAUGGUCCCAGCCUCCUCGCUGGCGCCGGCUGGGCAACAUUCCGAGGGGACCCUCCCCUCGGUAAUGGCGAAUGGGACCCA [C4A G59C] | 0.302 |
| GGCAGGCAUGGUCCCAGCCUCCUCGCUGGCGCCAGCUGGGCAACAUUCCGAGGGGACCGUCCCCUCGGUAAUGGCGAAUGGGACCCA [C4A G34A] | 0.284 |
| GGCAGGCAUGGUCCCAGCCUCCUCGCUGGCGCCCGCUGGGCAACAUUCCGAGGGGACCGUCCCCUCGGUAAUGGCGAAUGGGACCCA [C4A G34C] | 0.261 |
| GGCAGGCAUGGUCCCAGCCUCCUCGCUGGCGCCGGCUGGGCAACAUUCCGAGGGGACCGUCCCCUCGGUAAUGGCGAAUGGGAGCCA [C4A C84G] | 0.138 |
| GGCAGGCAUGGUCCCAGCCUCCUCGCUGGCGCCGGCUGGGCAACAUUCCGAGGGGACCGUCCCCUCGGUAAUGGCGAAUGGGAACCA [C4A C84A] | 0.192 |
| GGCAGGCAUGGUCCCAGCCUCCUCGCUGGCGCCGGCUGGGCAACAUUCCGAGGGGACCGUCCCCUCGGUAAGGGCGAAUGGGACCCA [C4A U72G] | 0.111 |
| GGCAGGCAUGGUCCCAGCCUCCUCGCUGGCGCCGGCUGGGCAACAUUCCGAGGGGACCGUCCCCUCGGUAAAGGCGAAUGGGACCCA [C4A U72A] | 0.0723 |

| Variant | self-cleavage |
| --- | --- |
| GGCAGGCAUGGUCCCAGCCUCCUCGCUGGCGCCGGCUGGGCAACAUUCCGAGGGGACCGUCCACUCGGUAAUGGCGAAUGGGACCCA [C4A C63A] | 0.354 |
| GGCAGGCAUGGUCCCAGCCUCCUCGCUGGCGCCGGCUGGGCAACAUUCCGAGGGGACCGUCCCCUAGGUAAUGGCGAAUGGGACCCA [C4A C66A] | 0.177 |
| GGCAGGCAUGGUCCCAGCCUCCUCCCUGGCGCCGGCUGGGCAACAUUCCGAGGGGACCGUCCCCUCGGUAAUGGCGAAUGGGACCCA [C4A G25C] | 0.181 |
| GGCAGGCAUGGUCCCAGCCUCCUCGCUGGCGCCGGCUGGGCAACAUUCCGAGGGGACCGGCCCCUCGGUAAUGGCGAAUGGGACCCA [C4A U60G] | 0.0449 |
| GGCAGGCAUGGUCCCAGCCUCCUCGCUGGCGCCGGCUGGGCAACAUUCCGAGGGGACCGCCCCCUCGGUAAUGGCGAAUGGGACCCA [C4A U60C] | 0.344 |
| GGCAGGCAUGGUCCCAGCCUCCUCGCUGGCGCCGGCUGGGCAACAUUCCGAGGGGACCGACCCCUCGGUAAUGGCGAAUGGGACCCA [C4A U60A] | 0.284 |
| GGCAGGCAUGGUCCCAGCCUCCUCGCUGGCGCCGGCUGGGCAACAUUCCGAGUGGACCGUCCCCUCGGUAAUGGCGAAUGGGACCCA [C4A G53U] | 0.174 |
| GGCAGGCAUGGUCCCAGCCUCCUCGCUGGCGCCGGCUGGGCAACAUUCCGAGAGGACCGUCCCCUCGGUAAUGGCGAAUGGGACCCA [C4A G53A] | 0.201 |
| GGCAGGCAUGGUCCCAGCCUCCUCGCUGGCGCCGGCUGGGCAACAUUCCGAGCGGACCGUCCCCUCGGUAAUGGCGAAUGGGACCCA [C4A G53C] | 0.344 |
| GGCAGGCAUGGUCCCAGCCUCCUCGCUGACGCCGGCUGGGCAACAUUCCGAGGGGACCGUCCCCUCGGUAAUGGCGAAUGGGACCCA [C4A G29A] | 0.0244 |
| GGCAGGCAUGGUCCCAGCCUCCUCGCUGGCGCCGGCUGGGCAACAUUCCGAGGGGACCGUCCCCUCGGUAAUGUCGAAUGGGACCCA [C4A G74U] | 0.0583 |
| GGCAGGCAUGGUCCCAGCCUCCUCGCUGGCGCCGGCUGGGCAACAUUCCGAGGCGACCGUCCCCUCGGUAAUGGCGAAUGGGACCCA [C4A G54C] | 0.284 |
| GGCAGGCAUGGUCCCAGCCUCCUCGCUGGCGCCGGCUGGGCAACAUUCCGAGGUGACCGUCCCCUCGGUAAUGGCGAAUGGGACCCA [C4A G54U] | 0.32 |
| GGCAGGCAUGGUCCCAGCCUCCUCGCUGGCGCCGGCUGGGCAACAUUCCGAGGAGACCGUCCCCUCGGUAAUGGCGAAUGGGACCCA [C4A G54A] | 0.268 |
| GGCAGGCAUGGUCCCAGCCUCCUCGCUGGCGCCGGCUGGGCAACAUUCCGAGGGGACCGUCCCCUCGCUAAUGGCGAAUGGGACCCA [C4A G68C] | 0.115 |
| GGCAGGCAUGGUCCCAGCCUCCUCGCUGGCGCCGGCUGGGCAACAUUCCGAGGGGACCGUCCCCUCGAUAAUGGCGAAUGGGACCCA [C4A G68A] | 0.196 |

From the RNAGym collection of RNA variant scans (doi:10.7554/elife.80360)
